# Like-named read-outs stand apart in the source and are kept apart here.
# How the values were obtained:
# [1] = molecular target: T1, human thyroid-stimulating hormone receptor (TSHR) (human, UniProt P16473 21-764); test: flow cytometry (FACS), 293 cells overexpressing human TSHR
# T1 construct: whole, on cells; Overexpressed on 293 cells; also called human TSHR
# [2] = molecular target: T2, mouse thyroid-stimulating hormone receptor (TSHR) (mouse, UniProt P47750 22-764); test: flow cytometry (FACS), 293 cells overexpressing mouse TSHR
# T2 construct: whole, on cells; Overexpressed on 293 cells; also called mouse TSHR; murine TSHR
# T2 sequence (P47750 22-764): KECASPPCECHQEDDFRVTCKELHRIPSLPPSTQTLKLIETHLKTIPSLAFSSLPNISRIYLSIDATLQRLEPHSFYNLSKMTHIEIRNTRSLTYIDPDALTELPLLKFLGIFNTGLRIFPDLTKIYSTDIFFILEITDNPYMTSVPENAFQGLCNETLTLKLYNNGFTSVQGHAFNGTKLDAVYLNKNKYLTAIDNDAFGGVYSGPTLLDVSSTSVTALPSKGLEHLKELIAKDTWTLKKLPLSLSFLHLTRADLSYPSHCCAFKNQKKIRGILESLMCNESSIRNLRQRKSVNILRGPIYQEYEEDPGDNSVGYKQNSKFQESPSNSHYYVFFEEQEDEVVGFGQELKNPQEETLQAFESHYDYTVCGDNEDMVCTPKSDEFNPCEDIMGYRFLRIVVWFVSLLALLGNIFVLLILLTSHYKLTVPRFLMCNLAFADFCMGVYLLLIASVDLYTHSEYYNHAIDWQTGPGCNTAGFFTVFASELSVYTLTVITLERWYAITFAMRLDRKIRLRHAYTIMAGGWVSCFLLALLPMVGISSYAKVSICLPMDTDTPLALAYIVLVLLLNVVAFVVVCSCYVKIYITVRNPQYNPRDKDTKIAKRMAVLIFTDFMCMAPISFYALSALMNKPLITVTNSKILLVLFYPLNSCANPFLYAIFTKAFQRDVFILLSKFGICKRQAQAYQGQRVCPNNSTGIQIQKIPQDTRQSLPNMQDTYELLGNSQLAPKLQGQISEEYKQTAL
# [3] = molecular target: T3, monkey thyroid-stimulating hormone receptor (TSHR) (monkey, UniProt A0A2K5X226 21-764); test: flow cytometry (FACS), 293 cells overexpressing monkey TSHR
# T3 construct: Overexpressed on 293 cells; also called monkey TSHR
# T3 sequence (A0A2K5X226 entry or part of it limits assumed, form in doubt): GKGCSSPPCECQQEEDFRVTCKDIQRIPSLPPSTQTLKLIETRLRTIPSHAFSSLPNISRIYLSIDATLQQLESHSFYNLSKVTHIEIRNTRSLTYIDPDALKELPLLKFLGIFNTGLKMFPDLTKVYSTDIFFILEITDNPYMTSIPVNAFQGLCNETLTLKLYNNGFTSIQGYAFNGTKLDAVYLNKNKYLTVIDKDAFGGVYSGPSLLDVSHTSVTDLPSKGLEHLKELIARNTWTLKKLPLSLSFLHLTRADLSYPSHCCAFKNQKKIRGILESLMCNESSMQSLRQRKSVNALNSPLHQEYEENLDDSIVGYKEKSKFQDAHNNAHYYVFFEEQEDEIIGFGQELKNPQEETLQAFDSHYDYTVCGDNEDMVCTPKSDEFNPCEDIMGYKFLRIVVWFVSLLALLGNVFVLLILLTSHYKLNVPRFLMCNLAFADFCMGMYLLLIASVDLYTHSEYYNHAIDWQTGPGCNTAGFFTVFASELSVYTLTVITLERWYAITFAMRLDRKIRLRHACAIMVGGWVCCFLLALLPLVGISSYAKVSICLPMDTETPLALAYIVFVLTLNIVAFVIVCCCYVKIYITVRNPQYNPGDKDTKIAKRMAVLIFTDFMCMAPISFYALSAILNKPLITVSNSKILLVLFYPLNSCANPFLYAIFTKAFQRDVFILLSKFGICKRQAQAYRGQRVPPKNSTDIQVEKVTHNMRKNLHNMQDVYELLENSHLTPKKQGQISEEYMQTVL
# [4] = molecular target: T2, mouse thyroid-stimulating hormone …; test: flow cytometry (FACS), 293 cells overexpressing mouse TSHR; remark: listed apart in the source
# [5] = molecular target: T3, monkey thyroid-stimulating hormone …; test: flow cytometry (FACS), 293 cells overexpressing monkey TSHR; remark: listed apart in the source
# [6] = molecular target: T1, human thyroid-stimulating hormone …; test: flow cytometry (FACS), 293 cells overexpressing human TSHR; remark: listed apart in the source
# [7] = molecular target: T1, human thyroid-stimulating hormone …; test: cell-based or functional assay
# [8] = molecular target: T2, mouse thyroid-stimulating hormone …; test: flow cytometry (FACS), 293 cells overexpressing mouse TSHR; remark: listed apart in the source
# [9] = molecular target: T4, hFcRn-Avi (Biosystems, FCM-H82W7) (human (printed as hFcRn), UniProt P55899 24-297; P61769 21-119, biotin on the Avi tag is implied by capture on an SA chip); test: SPR (Biacore 8K+), hFcRn-Avi captured on SA chip, antibody in flow, pH 6.0, 25 C, steady-state fit
# T4 construct: Bought reagent
# T4 sequence (P55899 24-297 limits assumed, chain 1 of 2): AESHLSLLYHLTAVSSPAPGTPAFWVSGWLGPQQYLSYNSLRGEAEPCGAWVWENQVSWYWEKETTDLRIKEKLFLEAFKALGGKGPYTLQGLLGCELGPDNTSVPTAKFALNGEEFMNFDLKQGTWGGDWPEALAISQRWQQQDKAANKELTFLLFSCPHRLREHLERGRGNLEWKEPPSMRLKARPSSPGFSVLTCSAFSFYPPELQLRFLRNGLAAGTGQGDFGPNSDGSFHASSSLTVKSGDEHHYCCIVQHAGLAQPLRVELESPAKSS
# T4 sequence (P61769 21-119 limits assumed, chain 2 of 2): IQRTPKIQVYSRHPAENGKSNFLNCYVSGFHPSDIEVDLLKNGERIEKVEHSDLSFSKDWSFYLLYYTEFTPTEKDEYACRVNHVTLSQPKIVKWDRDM
# [10] = molecular target: T3, monkey thyroid-stimulating hormone …; test: flow cytometry (FACS), 293 cells overexpressing monkey TSHR; remark: listed apart in the source
# [11] = molecular target: T1, human thyroid-stimulating hormone …; test: flow cytometry (FACS), 293 cells overexpressing human TSHR; remark: listed apart in the source
# [12] = molecular target: T1, human thyroid-stimulating hormone …; test: cell-based or functional assay; remark: listed apart in the source
# [13] = molecular target: T3, monkey thyroid-stimulating hormone …; test: flow cytometry (FACS), 293 cells overexpressing monkey TSHR; remark: listed apart in the source
# [14] = molecular target: T2, mouse thyroid-stimulating hormone …; test: flow cytometry (FACS), 293 cells overexpressing mouse TSHR; remark: listed apart in the source
# T1 sequence (P16473 21-764): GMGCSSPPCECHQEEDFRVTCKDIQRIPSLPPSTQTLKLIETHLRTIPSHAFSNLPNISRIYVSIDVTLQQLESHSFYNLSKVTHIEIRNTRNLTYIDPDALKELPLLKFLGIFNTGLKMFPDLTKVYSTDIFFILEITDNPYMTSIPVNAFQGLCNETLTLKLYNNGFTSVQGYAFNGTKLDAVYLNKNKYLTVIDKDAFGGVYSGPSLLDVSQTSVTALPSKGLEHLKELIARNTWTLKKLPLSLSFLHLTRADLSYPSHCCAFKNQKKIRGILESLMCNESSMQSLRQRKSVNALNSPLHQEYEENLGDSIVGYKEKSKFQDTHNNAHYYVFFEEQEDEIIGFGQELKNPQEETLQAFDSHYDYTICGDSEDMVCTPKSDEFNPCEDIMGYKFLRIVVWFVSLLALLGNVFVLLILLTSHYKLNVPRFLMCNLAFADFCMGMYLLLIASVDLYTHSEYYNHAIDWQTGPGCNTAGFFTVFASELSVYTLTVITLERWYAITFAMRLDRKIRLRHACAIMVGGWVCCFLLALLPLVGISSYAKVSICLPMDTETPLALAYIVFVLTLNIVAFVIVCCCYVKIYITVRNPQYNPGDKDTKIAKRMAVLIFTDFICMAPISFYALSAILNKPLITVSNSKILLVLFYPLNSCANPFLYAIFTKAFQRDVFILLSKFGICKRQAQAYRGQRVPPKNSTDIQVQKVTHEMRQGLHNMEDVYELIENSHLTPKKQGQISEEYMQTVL
binder,measurement,setting,value
"humanized antibody cAb21-VH2-VL2 (antibody, human IgG4 S228P, kappa, V domains shown, Humanized from mAb021) VH: QVQLVQSGAEVKKPGASVKVSCKASGYTFSNYWMQWVRQAPGQGLEWIGEIDPADSYTAYSQKFKGRATMTVDTSTSTVYMELSSLRSEDTAVYYCARRNLLRSGDYWGQGTLVTVSS VL: AIQLTQSPSSLSASVGDRVTITCSASSGITYIHWYQQKPGKAPKRWIYDSSKLASGVPSRFSGSGSGTDYTLTISSLQPEDFATYYCQQWSGNPPTFGQGTKLEIKR",EC50,[1],10.4 nM
same,Maximum binding signal,[1],402000
same,EC50,[2],11.9 nM
same,Maximum binding signal,[2],175000
same,EC50,[3],9.3 nM
same,Maximum binding signal,[3],313000
"humanized antibody cAb21-VH1-VL3 (antibody, human IgG4 S228P, kappa, V domains shown, Humanized from mAb021) VH: QVQLVQSGAEVKKPGASVKVSCKASGYTFSNYWMQWVRQAPGQGLEWMGEIDPADSYTAYSQKFKGRVTMTRDTSTSTVYMELSSLRSEDTAVYYCARRNLLRSGDYWGQGTLVTVSS VL: AIQLTQSPSSLSASVGDRVTITCSASSGITYIHWYQQKPGKAPKRWIYDSSKLASGVPARFSGSGSGTDYTLTISSLQPEDFATYYCQQWSGNPPTFGQGTKLEIKR",EC50,[1],8.7 nM
same,Maximum binding signal,[1],398000
same,EC50,[2],10.4 nM
same,Maximum binding signal,[2],185000
same,EC50,[3],7.8 nM
same,Maximum binding signal,[3],308000
"murine antibody mAb001 (antibody, V domains shown, Murine monoclonal antibody from hybridoma) VH: EVQLVESGGGLVKPGGSLKLSCAASGFTLSDYYIYWVRQTPEKRLEWVATISDGVIYTYYADSVKGRFTISRDNAKNNLYLQMSSLKSEDTAMYFCARAYGSSEVMDYWGQGTSVTVSS VL: QIVLTQSPAVLSASPGEKVTMTCSASSSVSYMHWYQQKSGTSPKRWIYDTSKLASGVPARFSGSGSGTSYSLTISSMEAEDAATYYCQQWSSNPWTFGGGTKLEIK",EC50,[4],2.52 nM
same,Maximum binding signal,[4],11800
same,EC50,[5],0.98 nM
same,Maximum binding signal,[5],13600
same,EC50,[6],1.28 nM
same,Maximum binding signal,[6],21000
"murine antibody mAb012 (antibody, V domains shown, Murine monoclonal antibody from hybridoma) VH: EVQLQQSGPVLLKPGASVKMSCKASGYTFTDYYMNWVKQSHGKSLEWIGVINPYNGESSNNQKFKGKATMTVDKSSSTAYMELNSLTSEDSAVYYCARCYGYGYYFDYWGQGTTLSVAS VL: QIVLTQSPAIMSASPGEKVTMTCSATSSVTYMHWYQQKSGTSPKRWIYDTSKLTSGVPPRFSGSGSGTSYSLTISSMEAEDAATYYCQQWSTYPYTFGGGTKLEIK",EC50,[4],8.65 nM
same,Maximum binding signal,[4],20800
same,EC50,[5],2.8 nM
same,Maximum binding signal,[5],24400
same,EC50,[6],4.74 nM
same,Maximum binding signal,[6],30000
"murine antibody mAb021 (antibody, V domains shown, Murine monoclonal antibody from hybridoma) VH: QVQLQQPGAEHVQPGASVKLSCKASGYTFSNYWMQWVRQRPGQGLDWIGEIDPADSYTAYSQKFKGKATLTVDTSSTTAYMQLSSLTSEDSAVYYCARRNLLRSGDYWGQGTSLTVSS VL: QIVLTQSPAIMSASPGEKVTMTCSASSGITYIHWYQQKSGTSPKRWIYDSSKLASGVPARFSGSGSGTSYSLTISSMEAEDAATYYCQQWSGNPPTFGAGTKLEVK",EC50,[4],10.3 nM
same,Maximum binding signal,[4],31600
same,EC50,[5],4.5 nM
same,Maximum binding signal,[5],42400
same,EC50,[6],3.5 nM
same,Maximum binding signal,[6],52000
"hAb01_G4P_V1 (antibody, human IgG4 S228P, kappa, also called hAb01_G4_V1) heavy: EVQLVESGGGLVKPGGSLRLSCAASGFTLSDYYIYWVRQAPGKGLEWVATISDAVIYTYYADSVKGRFTISRDNAKNSLYLQMNSLRAEDTAVYFCARAYGSSEVMDYWGQGTLVTVSSASTKGPSVFPLAPCSRSTSESTAALGCLVKDYFPEPVTVSWNSGALTSGVHTFPAVLQSSGLYSLSSVVTVPSSSLGTKTYTCNVDHKPSNTKVDKRVESKYGPPCPPCPAPEFLGGPSVFLFPPKPKDTLYITREPEVTCVVVDVSQEDPEVQFNWYVDGVEVHNAKTKPREEQFNSTYRVVSVLTVLHQDWLNGKEYKCKVSNKGLPSSIEKTISKAKGQPREPQVYTLPPSQEEMTKNQVSLTCLVKGFYPSDIAVEWESNGQPENNYKTTPPVLDSDGSFFLYSRLTVDKSRWQEGNVFSCSVMHEALHNHYTQKSLSLSLGK light: EIVLTQSPATLSLSPGERATLSCSASSSVSYMHWYQQKPGQAPKRWIYDTSKLASGVPARFSGSGSGTDYTLTISSLEPEDFAVYYCQQWSSNPWTFGGGTKLEIKRTVAAPSVFIFPPSDEQLKSGTASVVCLLNNFYPREAKVQWKVDNALQSGNSQESVTEQDSKDSTYSLSSTLTLSKADYEKHKVYACEVTHQGLSSPVTKSFNRGEC","IC50 (nM), cAMP in 293-human TSHR cells activated by Tab01",[7],2.95 nM
same,"IC50 (nM), cAMP in 293-human TSHR cells activated by Tab02",[7],2.74 nM
same,"Maximum inhibition rate (%), cAMP in 293-human TSHR cells activated by Tab01",[7],105%
same,"Maximum inhibition rate (%), cAMP in 293-human TSHR cells activated by Tab02",[7],100%
same,EC50,[8],2.35 nM
same,Max_MFI,[8],138000
same,Kd,[9],119 nM
same,Response value (RU),[9],73.1 RU
same,EC50,[10],2.77 nM
same,Max_MFI,[10],190000
same,EC50,[11],5.82 nM
same,Max_MFI,[11],282000
"hAb01_G1 (antibody, human IgG1, kappa, Same variable regions as hAb01_G4P, constant region subtype hIgG1) heavy: not shown light: EIVLTQSPATLSLSPGERATLSCSASSSVSYMHWYQQKPGQAPKRWIYDTSKLASGVPARFSGSGSGTDYTLTISSLEPEDFAVYYCQQWSSNPWTFGGGTKLEIKRTVAAPSVFIFPPSDEQLKSGTASVVCLLNNFYPREAKVQWKVDNALQSGNSQESVTEQDSKDSTYSLSSTLTLSKADYEKHKVYACEVTHQGLSSPVTKSFNRGEC",Kd,[9],189 nM
same,Response value (RU),[9],60.7 RU
"humanized antibody cAb01-VH1-DA-VL2 (antibody, human IgG4 S228P, kappa, V domains shown, Humanized from mAb001) VH: EVQLVESGGGLVKPGGSLRLSCAASGFTLSDYYIYWVRQAPGKGLEWVSTISDAVIYTYYADSVKGRFTISRDNAKNSLYLQMNSLRAEDTAVYYCARAYGSSEVMDYWGQGTLVTVSS VL: EIVLTQSPATLSLSPGERATLSCSASSSVSYMHWYQQKPGQAPRRWIYDTSKLASGIPARFSGSGSGTDYTLTISSLEPEDFAVYYCQQWSSNPWTFGGGTKLEIKR","IC50(nM), cAMP in 293-human TSHR cells activated by Tab01 (30 nM)",[12],1.3 nM
same,"IC50(nM), cAMP in 293-human TSHR cells activated by Tab02 (6.5 nM)",[12],0.91 nM
same,"Inhibition rate (%), cAMP in 293-human TSHR cells activated by Tab01 (30 nM)",[12],85.6%
same,"Inhibition rate (%), cAMP in 293-human TSHR cells activated by Tab02 (6.5 nM)",[12],87.4%
same,EC50,[13],2.19 nM
same,Maximum binding signal,[13],187000
same,EC50,[14],2.4 nM
same,Maximum binding signal,[14],113000
"humanized antibody cAb01-VH3-DA-VL2 (antibody, human IgG4 S228P, kappa, V domains shown, Humanized from mAb001) VH: EVQLVESGGGLVKPGGSLRLSCAASGFTLSDYYIYWVRQAPGKRLEWVATISDAVIYTYYADSVKGRFTISRDNAKNSLYLQMNSLRAEDTAVYFCARAYGSSEVMDYWGQGTLVTVSS VL: EIVLTQSPATLSLSPGERATLSCSASSSVSYMHWYQQKPGQAPRRWIYDTSKLASGIPARFSGSGSGTDYTLTISSLEPEDFAVYYCQQWSSNPWTFGGGTKLEIKR","IC50(nM), cAMP in 293-human TSHR cells activated by Tab01 (30 nM)",[12],0.29 nM
same,"IC50(nM), cAMP in 293-human TSHR cells activated by Tab02 (6.5 nM)",[12],0.23 nM
same,"Inhibition rate (%), cAMP in 293-human TSHR cells activated by Tab01 (30 nM)",[12],84%
same,"Inhibition rate (%), cAMP in 293-human TSHR cells activated by Tab02 (6.5 nM)",[12],82.8%
same,EC50,[13],2.29 nM
same,Maximum binding signal,[13],225000
same,EC50,[14],2.09 nM
same,Maximum binding signal,[14],129000
"humanized antibody cAb12-VH1-QG&S-VL3 (antibody, human IgG4 S228P, kappa, V domains shown, Humanized from mAb012) VH: QVQLVQSGAEVKKPGASVKVSCKASGYTFTDYYMNWVRQAPGQGLEWMGVINPYQGESSNNQKFKGRVTMTRDTSTSTVYMELSSLRSEDTAVYYCARSYGYGYYFDYWGQGTTVTVSS VL: AIQLTQSPSSLSASVGDRVTITCSATSSVTYMHWYQQKPGKAPKRWIYDTSKLTSGVPPRFSGSGSGTDYTLTISSLQPEDFATYYCQQWSTYPYTFGGGTKLEIKR",EC50,[1],10.5 nM
same,Maximum binding signal,[1],420000
same,EC50,[2],14 nM
same,Maximum binding signal,[2],98800
same,EC50,[3],8.1 nM
same,Maximum binding signal,[3],269000
"humanized antibody cAb12-VH3-QG&S-VL3 (antibody, human IgG4 S228P, kappa, V domains shown, Humanized from mAb012) VH: QVQLVQSGAEVKKPGASVKVSCKASGYTFTDYYMNWVKQAPGQGLEWIGVINPYQGESSNNQKFKGRATMTVDKSTSTVYMELSSLRSEDTAVYYCARSYGYGYYFDYWGQGTTVTVSS VL: AIQLTQSPSSLSASVGDRVTITCSATSSVTYMHWYQQKPGKAPKRWIYDTSKLTSGVPPRFSGSGSGTDYTLTISSLQPEDFATYYCQQWSTYPYTFGGGTKLEIKR",EC50,[1],6.5 nM
same,Maximum binding signal,[1],445000
same,EC50,[2],15 nM
same,Maximum binding signal,[2],135000
same,EC50,[3],9.2 nM
same,Maximum binding signal,[3],303000
